Test results as given in the supplement of paper PMC12042874.
± gives the uncertainty stated by the source.

Test: amyloid nucleation score (Sup35N fusion, yeast selection) (log enrichment); library NNK2; higher = more nucleation; inactive = no reads after selection
Outline: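 Nucleation score is defined as the DiMSum log enrichment of output over input reads, with centring on the mode score of non-aggregating sequences. A minimum of 100 input reads was required for each sequence. Reads came from Illumina sequencing of plasmid inserts from psi-negative yeast expressing Sup35N fused to peptides of 20 random codons, induced with 100 μM copper sulfate for 24 hours and grown 7 days at 30°C on medium lacking adenine and uracil.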

| Substance | amyloid nucleation score |
| --- | --- |
| FIFVSNKYTNGIFAILGT | 1.98 ± 0.13 |
| FIILYGSGMRLNFQGI | 0.968 ± 0.23 |
| FIKDKKSPSCCAN | -0.866 ± 0.4 |
| FIKRSAGNREANYNVTKENA | 0.816 ± 0.74 |
| FILVCWISIFGLFMIPGMWD | -1.13 ± 0.64 |
| FIMEAFFEPFNKGYRYRMMS | 0.833 ± 0.18 |
| FINGGSCYAFFCKYGYRMHR | -0.109 ± 0.37 |
| FIRVLVWWYVCRLFPHCVAR | 0.554 ± 0.81 |
| FISDVPHERLRLTFIF | -1.41 ± 0.64 |
| FISGYLSETVMVLVDRRLRC | -0.047 ± 1.1 |
| FIVWVV | -0.916 ± 1.1 |
| FIVYKVPFRV | -0.934 ± 0.78 |
| FKGDVHANHFICQMLFAPFR | 8.596 ± 0.057 |
| FLACRSLGKPRMFDRSLRYV | 0.185 ± 0.44 |
| FLARLI | 0.45 ± 0.74 |
| FLDPTVFSYLQVTCDIVDLH | -0.113 ± 1.1 |
| FLDQWDMCP | 0.619 ± 0.81 |
| FLECTSNIDVAMSPWLTLLN | -0.505 ± 1.1 |
| FLFMAIYSILLASIYVAFLS | 2.02 ± 0.2 |
| FLFSFKDPKHMDITCKAVYA | -0.433 ± 0.78 |
| FLGDFRVCLF | inactive |
| FLGLYKRYGVEVGLYMLILV | -0.742 ± 0.24 |
| FLGSVSVLLDKSSSGVNSKR | -0.284 ± 1.1 |
| FLISEDVFHSNSSVWEHISL | -0.173 ± 0.56 |
| FLMSVTYCKGFGRTEECACC | -0.28 ± 0.33 |

| Substance | amyloid nucleation score |
| --- | --- |
| FLMVVVGNVLPLSKCYALWY | -0.007 ± 0.55 |
| FLNMTIRVLAWFVYTI | inactive |
| FLNWCISKLR | -0.735 ± 1 |
| FLRLGLAITLISV | inactive |
| FLRLHE | inactive |
| FLSARHGRGFARGFSPP | inactive |
| FLSDNVISAY | -0.543 ± 0.38 |
| FLTLPFLPAHLKKPHKSLLR | -0.083 ± 0.56 |
| FLVYMIVVV | -0.702 ± 1.1 |
| FLYIRRAVGKWFLVFVTLQQ | 0.135 ± 0.48 |
| FLYRVNAKWVWLRGLSLWQW | 0.252 ± 0.23 |
| FMDWKLYSDPWAKF | -0.639 ± 0.37 |
| FMGGFG | 0.079 ± 0.63 |
| FMGRMLVIHL | 0.277 ± 0.41 |
| FMHNHGPGLDTYAYGTR | -1.13 ± 0.64 |
| FMLRICPGYAKGRCISWHSR | 0.396 ± 0.46 |
| FMLTLQKTLFFCNDRVC | 5.25 ± 0.064 |
| FMTKTPLYVKSYSFWFDLVM | 1.57 ± 0.36 |
| FMVDASLNQRMGINQFVCS | -1.34 ± 0.76 |
| FMYGTDSFGL | -1.08 ± 0.78 |
| FNMHI | 0.8 ± 0.8 |
| FNRPAQNGLAKYWYWIQ | 0.142 ± 0.42 |
| FNRVDDMCGPWCENWLNGQT | -1.23 ± 1.1 |
| FNSWLV | -0.86 ± 1.1 |
| FNTNRNEMCSML | -0.476 ± 1.1 |

| Substance | amyloid nucleation score |
| --- | --- |
| FNTSFNSVFPCSYRRFTGDI | 1.72 ± 0.097 |
| FNTSTAFESTDVKSKVM | -1.22 ± 1.1 |
| FPAWTDGVVLVRVVGASTEE | -0.132 ± 0.34 |
| FPCSVRVTLTYLFMYEPVRP | 0.076 ± 0.2 |
| FPDSSEISHGAVHLLQVCPL | -0.313 ± 0.33 |
| FPNDKLCNFFFDNNQSLARK | -1.31 ± 1 |
| FPSVLSFWKTMSVCGDHPYP | -0.686 ± 0.3 |
| FPVYRI | inactive |
| FQDVDVLGSWPG | 0.387 ± 0.53 |
| FQGCIPFLFVNSWFSYSFVK | -1.36 ± 1.1 |
| FQLPFIVFRRMIVYLKWRWG | -1.05 ± 0.78 |
| FQMVLYRYYTTGISGKLLQD | inactive |
| FQSHWVLERGI | -0.901 ± 1 |
| FRDVPGRECMRLRVYGMNLP | 0.753 ± 0.21 |
| FRFLDNELQNRGRRMYQLGY | -0.465 ± 1 |
| FRKGNIMELFALCCMISYCF | -0.682 ± 0.49 |
| FRLHLKEFDGVPRWCQYTF | inactive |
| FRLIQWWARWIVFFGSTSLH | -0.804 ± 0.45 |
| FRLRVRTVRQNCLYHWGSVE | 0.024 ± 0.56 |
| FRNSNLT | -0.462 ± 0.76 |
| FRTSYRSCCVNTYREVVVYA | -0.501 ± 0.45 |
| FRTYSAVVEWARNKYNLFCG | -0.271 ± 0.28 |
| FRVMSRVWTTEESAFLKLLC | -0.94 ± 0.63 |
| FSCMLNSNFH | inactive |
| FSDNKLFA | 0.715 ± 0.81 |

| Substance | amyloid nucleation score |
| --- | --- |
| FSFKPRTRSAGG | -0.11 ± 0.5 |
| FSFTYQRFSDITCQSTLGLV | -0.705 ± 0.26 |
| FSGDGCRDSA | 0.307 ± 0.56 |
| FSGTF | -1.07 ± 0.76 |
| FSLCSLAEVAKKVTTLRRDG | -0.277 ± 1.1 |
| FSLQQVNFMTVSRGKCSLKL | inactive |
| FSLSCM | inactive |
| FSLSQ | 3.55 ± 0.11 |
| FSMDHDDRSSCKAWHRSEFE | 1 ± 0.2 |
| FSNSTIFDVHAQVLGDFERP | -0.254 ± 1 |
| FSNVLRFSIA | -1.27 ± 0.45 |
| FSPKKFK | -0.532 ± 1 |
| FSPTGSITWNCIRYYLVTRS | -0.279 ± 0.33 |
| FSQYCMALLIVNQEFWACCW | -0.944 ± 0.45 |
| FSSCSDRLGHGLNSLTKHLI | -0.737 ± 0.39 |
| FSSEIRTLGQELVFGVISKA | -0.307 ± 0.76 |
| FSTWSTLDSVACW | inactive |
| FSWFFSNITITMNHCLGVSR | inactive |
| FSYRYIEDWCTNVGDLDVKL | -0.073 ± 0.26 |
| FTFLRRLMFTGFRLAIQNPS | inactive |
| FTFVWNVVQFGTFYGSHLRG | 4.5 ± 0.071 |
| FTFYR | 1.08 ± 0.41 |
| FTSASQFNNTGFCLI | -0.23 ± 0.79 |
| FTSVRMCCILTLGISGSVRA | inactive |
| FTWHLLYTNDCPLVIYMMEL | -0.403 ± 0.74 |

| Substance | amyloid nucleation score |
| --- | --- |
| FVCFPRSVAQRDDSSGVGGN | -0.121 ± 1.1 |
| FVCMIILS | 4.89 ± 0.064 |
| FVDVVPGKSGASET | -0.126 ± 0.49 |
| FVFRWNSVPIRLRVEQGCVF | 0.532 ± 0.47 |
| FVGCYNSRK | 2.4 ± 0.08 |
| FVIFVMNHLWFFWIVWEDRE | -1.26 ± 1.1 |
| FVLLFVYYFILFRLCRIQKV | inactive |
| FVLRCDPVMA | -0.053 ± 1 |
| FVNYSRGRFQVGLVMFRVRP | 0.427 ± 0.74 |
| FVRQNVSFTLGKYYQWVVGM | -0.933 ± 0.24 |
| FVSFSVGWTLCADMNLRMCF | 1.24 ± 0.22 |
| FVSRIGIFLS | -1.28 ± 0.78 |
| FVSRRIVAIPLWLLVSEITS | -0.201 ± 0.38 |
| FVTFFLSSHWVIVLDAYSLN | -0.61 ± 1.1 |
| FVVQCY | 0.998 ± 0.52 |
| FVVWWFLKEMRDSAGKGDEF | -0.49 ± 0.34 |
| FVYVVEGVWEKGIKFFMIFK | -0.913 ± 1.1 |
| FWDAWSDDRRERWRPCPPRT | 1.45 ± 0.38 |
| FWDSIKIHSKSLLSCIDGPW | 2.35 ± 0.066 |
| FWKSWHTPRALAKNSPSAFL | -0.779 ± 0.64 |
| FWLAWLAVRTNHFLAKITD | -0.267 ± 0.28 |
| FWPSQNYRHFLTHRGRRRRS | 0.552 ± 0.66 |
| FWPYRPCKLYVIYLR | inactive |
| FWSCVLSFVYN | 6.1 ± 0.067 |
| FWSGVTFSVLSYMSVSNMVP | -0.979 ± 0.55 |

| Substance | amyloid nucleation score |
| --- | --- |
| FWSSARKDLSATKKGVGFVG | 5.52 ± 0.06 |
| FWVKKLYLGIGSHVWNMGFN | inactive |
| FWYRAYDLIPVLTAGWRYLF | 0.001 ± 0.76 |
| FYAVHLCLTYALGCRLVTSC | -0.932 ± 0.76 |
| FYCIFNFDIFV | 6.286 ± 0.052 |
| FYCMKQLLNNIRWLGYSVCR | -1.28 ± 1.1 |
| FYGAKMSIHSYC | inactive |
| FYGFL | inactive |
| FYGPFV | 0.729 ± 0.23 |
| FYHLLLTFGKIVVVQAAWSM | 0.981 ± 0.51 |
| FYINTYQVSQGFIA | inactive |
| FYKWGVVIFDGNCIEKWDIL | -1.52 ± 0.75 |
| FYLISWKWVKHVGIFA | -0.618 ± 1.1 |
| FYLSFRVECLGRR | 4.782 ± 0.045 |
| FYMNPRRYRGLVIMFFSSPV | -1.27 ± 1.1 |
| FYMYFPNRAYWVGLGLTPML | -0.365 ± 0.61 |
| FYNNPDGDRVDVRSCCYYMW | 7.19 ± 0.073 |
| FYNYRNDVIFVFLAHMPANY | 2.43 ± 0.13 |
| FYQRLMSLTTMYLIQRHSL | -0.038 ± 0.74 |
| FYRRNNSPYSFAVRCGVWFL | inactive |
| FYSAVYMLFIVMWFGY | inactive |
| FYSFRLFMV | 1.88 ± 0.2 |
| FYSTVGSSFWTARQGISLQI | 1.05 ± 0.25 |
| FYSVNCFFFCHSIVILEKLF | 3.33 ± 0.15 |
| FYVLWQLVVYAMVMYWDTYS | inactive |

| Substance | amyloid nucleation score |
| --- | --- |
| FYVYFVCEKIES | -0.076 ± 0.79 |
| GALKSMLQVFQEGLLHDWSI | -0.936 ± 0.31 |
| GALNISLDTLMVSRCYFHSP | 0.945 ± 0.31 |
| GALTQSVLIYRH | 2.12 ± 0.13 |
| GARMSRSSGFSVQYNFSGQG | 4.11 ± 0.093 |
| GASLLFALSLSYKFHQYLVD | -1.44 ± 0.49 |
| GASSPGSAMLTVGILEVVVG | -0.375 ± 0.31 |
| GATLGVADRPGKSAGLPWTD | 0.998 ± 0.15 |
| GAYYSQ | -0.316 ± 0.46 |
| GCDDDDAA | 1.31 ± 0.32 |
| GCDEEDCCCLRFRGC | 6.513 ± 0.031 |
| GCFPSLWWLLPGCFACYSLR | 0.721 ± 0.8 |
| GCKLPYE | -1.39 ± 0.75 |
| GCRTFDPSNGAAIDGAMSFV | inactive |
| GCTRE | 1.36 ± 0.53 |
| GCYTET | 0.729 ± 0.52 |
| GDAIANCIVVWYGHAMPARY | 2.06 ± 0.12 |
| GDCQE | 1.1 ± 0.23 |
| GDDLPWWCISIWFFLSWLEN | inactive |
| GDDWSADVVI | -0.718 ± 0.55 |
| GDGLEMCWVA | -0.226 ± 0.37 |
| GDSIDARGRVQAPQSKEGLR | 1.12 ± 0.42 |
